Test results published in article PMC11452399 (Nature Communications, 2024).

Biological target: human ferritin heavy chain (FTH1) (human, UniProt P02794)
Assay: ELISA

human ferritin heavy chain (FTH1), sequence (P02794 whole entry): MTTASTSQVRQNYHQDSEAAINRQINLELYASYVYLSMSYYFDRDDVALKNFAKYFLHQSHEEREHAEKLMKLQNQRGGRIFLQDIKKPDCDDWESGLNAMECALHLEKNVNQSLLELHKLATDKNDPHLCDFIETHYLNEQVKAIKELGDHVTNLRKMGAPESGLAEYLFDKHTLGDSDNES

Work on DSFQVIKNSPLSEWLI [GST-Peptide WT (NCOA4 484-499)] yielded an EC50 of 288 nM.
